# IntAct's records for PubMed 24937458
# B1: Lysine-specific demethylase 5B (Homo sapiens), Q9UGL1 (parent)
# chain: MEAATTLHPGPRPALPLGGPGPLGEFLPPPECPVFEPSWEEFADPFAFIHKIRPIAEQTGICKVRPPPDWQPPFACDVDKLHFTPRIQRLNELEAQTRVKLNFLDQIAKYWELQGSTLKIPHVERKILDLFQLNKLVAEEGGFAVVCKDRKWTKIATKMGFAPGKAVGSHIRGHYERILNPYNLFLSGDSLRCLQKPNLTTDTKDKEYKPHDIPQRQSVQPSETCPPARRAKRMRAEAMNIKIEPEETTEARTHNLRRRMGCPTPKCENEKEMKSSIKQEPIERKDYIVENEKEKPKSRSKKATNAVDLYVCLLCGSGNDEDRLLLCDGCDDSYHTFCLIPPLHDVPKGDWRCPKCLAQECSKPQEAFGFEQAARDYTLRTFGEMADAFKSDYFNMPVHMVPTELVEKEFWRLVSTIEEDVTVEYGADIASKEFGSGFPVRDGKIKLSPEEEEYLDSGWNLNNMPVMEQSVLAHITADICGMKLPWLYVGMCFSSFCWHIEDHWSYSINYLHWGEPKTWYGVPGYAAEQLENVMKKLAPELFVSQPDLLHQLVTIMNPNTLMTHEVPVYRTNQCAGEFVITFPRAYHSGFNQGFNFAEAVNFCTVDWLPLGRQCVEHYRLLHRYCVFSHDEMICKMASKADVLDVVVASTVQKDMAIMIEDEKALRETVRKLGVIDSERMDFELLPDDERQCVKCKTTCFMSAISCSCKPGLLVCLHHVKELCSCPPYKYKLRYRYTLDDLYPMMNALKLRAESYNEWALNVNEALEAKINKKKSLVSFKALIEESEMKKFPDNDLLRHLRLVTQDAEKCASVAQQLLNGKRQTRYRSGGGKSQNQLTVNELRQFVTQLYALPCVLSQTPLLKDLLNRVEDFQQHSQKLLSEETPSAAELQDLLDVSFEFDVELPQLAEMRIRLEQARWLEEVQQACLDPSSLTLDDMRRLIDLGVGLAPYSAVEKAMARLQELLTVSEHWDDKAKSLLKARPRHSLNSLATAVKEIEEIPAYLPNGAALKDSVQRARDWLQDVEGLQAGGRVPVLDTLIELVTRGRSIPVHLNSLPRLETLVAEVQAWKECAVNTFLTENSPYSLLEVLCPRCDIGLLGLKRKQRKLKEPLPNGKKKSTKLESLSDLERALTESKETASAMATLGEARLREMEALQSLRLANEGKLLSPLQDVDIKICLCQKAPAAPMIQCELCRDAFHTSCVAVPSISQGLRIWLCPHCRRSEKPPLEKILPLLASLQRIRVRLPEGDALRYMIERTVNWQHRAQQLLSSGNLKFVQDRVGSGLLYSRWQASAGQVSDTNKVSQPPGTTSFSLPDDWDNRTSYLHSPFSTGRSCIPLHGVSPEVNELLMEAQLLQVSLPEIQELYQTLLAKPSPAQQTDRSSPVRPSSEKNDCCRGKRDGINSLERKLKRRLEREGLSSERWERVKKMRTPKKKKIKLSHPKDMNNFKLERERSYELVRSAETHSLPSDTSYSEQEDSEDEDAICPAVSCLQPEGDEVDWVQCDGSCNQWFHQVCVGVSPEMAEKEDYICVRCTVKDAPSRK
# partner: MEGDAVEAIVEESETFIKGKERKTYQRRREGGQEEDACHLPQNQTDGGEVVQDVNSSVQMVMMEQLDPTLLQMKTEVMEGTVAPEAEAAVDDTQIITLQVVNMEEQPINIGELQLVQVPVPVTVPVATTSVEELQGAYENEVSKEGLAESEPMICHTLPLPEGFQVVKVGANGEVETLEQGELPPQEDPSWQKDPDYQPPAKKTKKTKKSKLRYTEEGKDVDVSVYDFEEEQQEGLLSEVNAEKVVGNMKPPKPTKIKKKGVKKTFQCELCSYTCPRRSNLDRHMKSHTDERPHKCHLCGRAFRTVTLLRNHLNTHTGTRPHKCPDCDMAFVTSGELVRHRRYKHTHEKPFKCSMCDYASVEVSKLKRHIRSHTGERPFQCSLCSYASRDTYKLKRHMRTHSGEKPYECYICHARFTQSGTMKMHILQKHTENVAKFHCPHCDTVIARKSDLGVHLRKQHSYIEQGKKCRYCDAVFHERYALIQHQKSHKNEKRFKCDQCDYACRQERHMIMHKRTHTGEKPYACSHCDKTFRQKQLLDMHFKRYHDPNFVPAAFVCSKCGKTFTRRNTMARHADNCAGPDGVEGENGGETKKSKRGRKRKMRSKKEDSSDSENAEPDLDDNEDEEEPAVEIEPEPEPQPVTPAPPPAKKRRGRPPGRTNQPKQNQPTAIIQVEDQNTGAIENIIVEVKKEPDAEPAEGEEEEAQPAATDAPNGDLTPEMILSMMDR
# Variants of: B1
# Conditions: with ctcf_human CTCF
row,effect of a mutation on the interaction,Variant
1,decreasing interaction strength,K1435R
